Assay results reported in paper PMC8324831, “A synthetic nanobody targeting RBD protects hamsters from SARS-CoV-2 infection” (Nature Communications, 2021).
Where a chain is given by its changes, count along the chain named. Read-outs that look alike come from different tables or passages of the source.

Columns and labels:
[1] = target: SARS-CoV-2 S-RBD for crystallization (residues 330-531, Avi-tag and His-tag removed by 3C protease) (SARS-CoV-2, Wuhan-Hu-1 reference …, UniProt P0DTC2); assay: crystal structure; settings: both partners purified
[2] = target: T1, SARS-CoV-2 S-RBD with Avi-tag and deca-His tag (residues 330-531) (SARS-CoV-2, UniProt P0DTC2, biotin on the Avi tag (BirA) where immobilised on streptavidin sensors or used in ELISA and FSEC); assay: ELISA; Myc-tagged sybody from lysate captured by anti-Myc antibody on protein A-coated plate; 50 nM biotinylated RBD added; streptavidin-HRP; room temperature, TBST; settings: one partner purified
[3] = target: T1, SARS-CoV-2 S-RBD with Avi-tag and …
[4] = target: T1, SARS-CoV-2 S-RBD with Avi-tag and …; assay: cell-based or functional assay
[5] = target: T1, SARS-CoV-2 S-RBD with Avi-tag and …; assay: BLI; Octet RED96; biotinylated RBD immobilised on SA sensor; sybodies as analytes; 30 °C; 0.005% Tween 20, 150 mM NaCl, 20 mM Tris HCl pH 8.0; fitted for 1:1 stoichiometry; settings: both partners purified
[6] = target: T1, SARS-CoV-2 S-RBD with Avi-tag and …; assay: SEC; settings: one partner purified
[7] = target: SARS-CoV-2 S-RBD with Avi-tag and deca-His tag (residues 330-531) (SARS-CoV-2, UniProt P0DTC2 330-531); assay: cell-based or functional assay

B1: sybody SR4 (VHH)
VHH: QVQLVESGGGLVQAGGSLRLSCAASGFPVYSWNMWWYRQAPGKEREWVAAIESHGDSTRYADSVKGRFTISRDNAKNTVYLQMNSLKPEDTAVYYCYVWVGHTYYGQGTQVTVS
B1: binds [1]; binds [2].

B2: LR10 (VHH)
VHH: QVQLVESGGGSVQAGGSLRLSCAASGTISSITYLGWFRQAPGKEREGVAALTTNNGHTYYADSVKGRFTVSLDNAKNTVYLQMNSLKPEDTALYYCAAADWGYDWPLDRYHYWYWGQGTQVTVS
B2: binds [3].

B3: sybody MR3 (VHH)
VHH: QVQLVESGGGLVQAGGSLRLSCAASGFPVNAHFMYWYRQAPGKEREWVAAIYSYGRTLYADSVKGRFTISRDNAKNTVYLQMNSLKPEDTAVYYCNVKDYGAASWEYDYWGQGTQVTVS
With B3 the “IC50 of neutralisation of SARS-CoV-2 S pseudovirus on VeroE6-hACE2 cells (blocks RBD-ACE2)” value [4] was 0.42 µg/mL, the Kd [5] was 1 nM and the koff [5] was 0.00023 s⁻¹.

B4: sybody MR17 (VHH)
VHH: QVQLVESGGGLVQAGGSLRLSCAASGFPVEVWRMEWYRQAPGKEREGVAAIESYGHGTRYADSVKGRFTISRDNAKNTVYLQMNSLKPEDTAVYYCNVKDDGQLAYHYDYWGQGTQVTVS
With B4 the Kd [5] was 83.7 nM.

B5: sybody MR4 (VHH)
VHH: QVQLVESGGGLVQAGGSLRLSCAASGFPMYAWEMAWYRQAPGKEREWVAAIRSMGVHTHYSDSVKGRFTISRDNAKNTVYLQMNSLKPEDTAVYYCNVKDFGGHQAYYDYWGQGTQVTVS
B5: binds [6].

B6: LR4 (VHH)
VHH: QVQLVESGGGSVQAGGSLRLSCAASGFIHSIYYLGWFRQAPGKEREGVAALNTQHGTTYYADSVKGRFTVSLDNAKNTVYLQMNSLKPEDTALYYCAAARWGRNYPLNYWQYSYWGQGTQVTVS
B6: binds [3].

B7: LR8 (VHH)
VHH: QVQLVESGGGSVQAGGSLRLSCAASGTIAYIKYLGWFRQAPGKEREGVAALMTRWGETYYADSVKGRFTVSLDNAKNTVYLQMNSLKPEDTALYYCAAANYGANFPLQANTYFYWGQGTQVTVS
B7: binds [3].

B8: LR12 (VHH)
VHH: B7 VHH with T27S, Y30S, N100E, Y101C, F105S, Q108H, N110K, T111D, F113S
B8: binds [3].

B9: LR17 (VHH)
VHH: B7 VHH with T27S, Y30H, W55H, E57Q, N100Y, Q108F, A109Q, N110T, T111G, F113T
B9: binds [3].

B10: LR7 (VHH)
VHH: QVQLVESGGGSVQAGGSLRLSCAASGSISSITYLGWFRQAPGKEREGVAALITNWGHTYYADSVKGRFTVSLDNAKNTVYLQMNSLKPEDTALYYCAAAFHGEQYPLYTNKYHYWGQGTQVTVS
B10: binds [3].

B11: Fc-MR3 (Fc fusion)
chain: GSSSQVQLVESGGGLVQAGGSLRLSCAASGFPVNAHFMYWYRQAPGKEREWVAAIYSYGRTLYADSVKGRFTISRDNAKNTVYLQMNSLKPEDTAVYYCNVKDYGAASWEYDYWGQGTQVTVSERKCCVECPPCPAPPVAGPSVFLFPPKPKDTLMISRTPEVTCVVVDVSHEDPEVQFNWYVDGVEVHNAKTKPREEQFNSTFRVVSVLTVVHQDWLNGKEYKCKVSNKGLPAPIEKTISKTKGQPREPQVYTLPPSREEMTKNQVSLTCLVKGFYPSDIAVEWESNGQPENNYKTTPPMLDSDGSFFLYSKLTVDKSRWQQGNVFSCSVMHEALHNHYTQKSLSLSPGK
With B11 the “IC50 of neutralisation of SARS-CoV-2 S pseudovirus on VeroE6-hACE2 cells (blocks RBD-ACE2)” value [7] was 0.042 µg/mL.

B12: LR13 (VHH)
VHH: QVQLVESGGGSVQAGGSLRLSCAASGSISSITYLGWFRQAPGKEREGVAALITHAGRTYYADSVKGRFTVSLDNAKNTVYLQMNSLKPEDTALYYCAAADWGWYWPLVIDHYEYWGQGTQVTVS
B12: binds [3].

B13: LR6 (VHH)
VHH: QVQLVESGGGSVQAGGSLRLSCAASGSISSITYLGWFRQAPGKEREGVAALVTTSGNTYYADSVKGRFTVSLDNAKNTVYLQMNSLKPEDTALYYCAAATWGYSWPLEHDEYWYWGQGTQVTVS
B13: binds [3].

B14: sybody LR1 (VHH)
VHH: B13 VHH with V52I, T54D, N57R, T100E, S104E, E108Y, H109Y, D110A, E111S, Y112S
B14: binds [6].

B15: sybody LR5 (VHH)
VHH: B13 VHH with V52I, T54S, S55N, N57R, S104H, E108G, H109A, D110W, E111D
B15: binds [6].

B16: LR11 (VHH)
VHH: B13 VHH with T54H, N57S, T100Y, Y103W, S104D, E108N, H109S, D110Q, E111D
B16: binds [3].

B17: LR18 (VHH)
VHH: B13 VHH with T54E, S55N, N57H, S104E, E108Y, H109S, D110N, E111D, W113F
B17: binds [3].

B18: LR9 (VHH)
VHH: B12 VHH with H54A, A55R, D100N, W103Y, Y104N, V108A, I109Y, D110S, H111D, E113W
B18: binds [3].

B19: LR15 (VHH)
VHH: B13 VHH with V52K, T54A, N57Q, T100D, S104N, E108I, H109R, D110E, W113E
B19: binds [3].

B20: LR14 (VHH)
VHH: B13 VHH with S29P, S30G, T54N, N57H, T100D, S104Q, E108D, H109K, D110A
B20: binds [3].

B21: LR16 (VHH)
VHH: B13 VHH with V52Y, S55H, N57Y, T100D, S104N, W105I, E108N, H109I, D110T, E111D
B21: binds [3].
